Square brackets hold non-standard residues; d marks the D form. Primed or numbered codes have the meaning given here. Ends that are not written are not given here. FITC′ = fluorescein isothiocyanate (ϕ)
B1: [^19F]-ACI-89-Kϕ (peptide)
peptide: [dP][dS][dH][dY][dR][dH][dI][dS][dP][dA][dQ][dK][dK](FITC′)
modifications: also: [19F]-4-fluorobenzoyl label, place not given here
notes: D-enantiomeric derivative of ACI-80 (D1): Q1P, V12K, added C-terminal lysine, fluorinated; also called D1-Q1P-V12K-K[^19F]ϕ; source: synthetic peptide, reacted with [^19F]-N-succinimidyl-4-fluorobenzoate (SFB), HPLC purified
B2: ACI-82-Kϕ (peptide)
peptide: [dS][dH][dY][dR][dH][dI][dS][dP][dA][dQ][dV][dK](FITC′)
notes: D-enantiomeric derivative of ACI-80 (D1): N-terminal glutamine deleted (Q1X), added C-terminal lysine; also called D1-Q1X-Kϕ; source: synthetic peptide (JPT Peptide Technologies GmbH, Berlin)
B3: [^19F]-ACI-88-Kϕ (peptide)
peptide: [dS][dH][dY][dR][dH][dI][dS][dP][dA][dQ][dK][dK](FITC′)
modifications: also: [19F]-4-fluorobenzoyl label, place not given here
notes: D-enantiomeric derivative of ACI-80 (D1): N-terminal glutamine deleted (Q1X), V12K, added C-terminal lysine, fluorinated; also called D1-Q1X-V12K-K[^19F]ϕ; source: synthetic peptide, reacted with [^19F]-N-succinimidyl-4-fluorobenzoate (SFB), HPLC purified
B4: ACI-88-Kϕ (peptide)
peptide: [dS][dH][dY][dR][dH][dI][dS][dP][dA][dQ][dK][dK](FITC′)
notes: D-enantiomeric derivative of ACI-80 (D1): N-terminal glutamine deleted (Q1X), V12K, added C-terminal lysine; also called D1-Q1X-V12K-Kϕ; source: synthetic peptide (JPT Peptide Technologies GmbH, Berlin)
B5: ACI-85-Kϕ (peptide)
peptide: [dS][dF][dY][dR][dH][dI][dS][dP][dA][dQ][dV][dK](FITC′)
notes: D-enantiomeric derivative of ACI-80 (D1): N-terminal glutamine deleted (Q1X), H3F, added C-terminal lysine; also called D1-Q1X-H3F-Kϕ; source: synthetic peptide (JPT Peptide Technologies GmbH, Berlin)
B6: ACI-89-Kϕ (peptide)
peptide: [dP][dS][dH][dY][dR][dH][dI][dS][dP][dA][dQ][dK][dK](FITC′)
notes: D-enantiomeric derivative of ACI-80 (D1): Q1P, V12K, added C-terminal lysine; also called D1-Q1P-V12K-Kϕ; source: synthetic peptide (JPT Peptide Technologies GmbH, Berlin)
B7: ACI-83-Kϕ (peptide)
peptide: [dP][dS][dH][dY][dR][dH][dI][dS][dP][dA][dQ][dV][dK](FITC′)
notes: D-enantiomeric derivative of ACI-80 (D1): Q1P, added C-terminal lysine; also called D1-Q1P-Kϕ; source: synthetic peptide (JPT Peptide Technologies GmbH, Berlin)
B8: ACI-87-Kϕ (peptide)
peptide: [dQ][dS][dH][dY][dR][dH][dI][dS][dP][dA][dQ][dK][dK](FITC′)
notes: D-enantiomeric derivative of ACI-80 (D1): V12K, added C-terminal lysine; also called D1-V12K-Kϕ; source: synthetic peptide (JPT Peptide Technologies GmbH, Berlin)
B9: ACI-80-Kϕ (peptide)
peptide: [dQ][dS][dH][dY][dR][dH][dI][dS][dP][dA][dQ][dV][dK](FITC′)
notes: D-enantiomeric peptide ACI-80 (D1), selected by mirror image phage display on aggregated Aβ1–42, with an added C-terminal lysine; also called D1-Kϕ; source: synthetic peptide (JPT Peptide Technologies GmbH, Berlin)
B10: ACI-86-Kϕ (peptide)
peptide: [dP][dS][dF][dY][dR][dH][dI][dS][dP][dA][dQ][dV][dK](FITC′)
notes: D-enantiomeric derivative of ACI-80 (D1): Q1P, H3F, added C-terminal lysine; also called D1-Q1P-H3F-Kϕ; source: synthetic peptide (JPT Peptide Technologies GmbH, Berlin)
B11: [^19F]-ACI-87-Kϕ (peptide)
peptide: [dQ][dS][dH][dY][dR][dH][dI][dS][dP][dA][dQ][dK][dK](FITC′)
modifications: also: [19F]-4-fluorobenzoyl label, place not given here
notes: D-enantiomeric derivative of ACI-80 (D1): V12K, added C-terminal lysine, fluorinated; The text says V12K was made to enable fluorination; also called D1-V12K-K[^19F]ϕ; source: synthetic peptide, reacted with [^19F]-N-succinimidyl-4-fluorobenzoate (SFB), HPLC purified

target: T1, Aβ1–42 fibrils (UniProt P05067 672-713); experiment: ELISA; Aβ1–42 fibrils coated on the plate (10 µg/ml, bicarbonate-carbonate buffer pH 9.6); D-compounds from 10 µg/ml, 2 h at 37°C; detected by anti-fluorescein isothiocyanate-AP, pNPP 2.5 h; conditions: both partners purified
T1 construct: amyloid-β peptide Aβ1–42, cut from the amyloid precursor protein (APP), in fibrillar form; Aggregated (fibrillar) state of the same peptide as m15; also called fibrillar Aß1–42; Aβ fibrils; source: bought: JPT Biotech or Bachem AG (HPLC purified peptide); fibrils formed at 37°C (7 days in PBS pH 7.4 for SPR; five days in 50 mM Tris-HCl pH 7.4 for ELISA)
T1 sequence (P05067 672-713): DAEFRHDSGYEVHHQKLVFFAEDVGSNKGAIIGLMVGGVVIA

Binder	% binding relative to ACI-80-Kϕ	binding value (ELISA, 10 ug/mL compound)
B1	207%	1.86
B2	142%	1.28
B3	196%	1.76
B4	198%	1.78
B5	111%	1
B6	165%	1.49
B7	167%	1.5
B8	103%	0.93
B9	100%	0.9
B10	138%	1.24
B11	140%	1.26

target: T1, Aβ1–42 fibrils; experiment: SPR; Biacore T100, single-cycle mode, 25°C; Aβ1–42 fibrils immobilised on a CM5 chip by amine coupling; PBS pH 7.4, 30 µl/min; 100 to 62500 nM in fivefold steps, 60 s each; heterogeneous ligand model; conditions: both partners purified

Binder	K D1 (heterogeneous ligand model, site 1)	K D2 (heterogeneous ligand model, site 2)	k off1 (heterogeneous ligand model, site 1)	k off2 (heterogeneous ligand model, site 2)	k on1 (heterogeneous ligand model, site 1)	k on2 (heterogeneous ligand model, site 2)
B4	4.22e-07	5.95e-05	0.00722	0.0553	17100	930
B6	8e-06	3.53e-06	0.162	0.0118	20300	3340
B8	8.93e-06	2.59e-05	0.00184	0.0407	206	1570
B9	5.38e-05	0.000115	0.0252	1.58	469	13700

target: T1, Aβ1–42 fibrils; experiment: SPR; Biacore 1000; Aβ1–42 fibrils (6800 RU) immobilised on a CM5 chip by amine coupling; PBS pH 7.4; analytes 50 µg/ml, 5 µl/min for 2 minutes, ambient temperature; semi-quantitative: response in % of ACI-80-Kϕ; conditions: both partners purified

Binder	Dissociation [%] (response 60 s after end of injection, relative to ACI-80-Kϕ)	Interaction [%] (maximal response during injection, relative to ACI-80-Kϕ)
B1	0%	476%
B2	300%	393%
B3	1230%	294%
B4	667%	365%
B5	40%	229%
B6	533%	518%
B7	200%	600%
B8	443%	324%
B10	40%	21%
B11	67%	153%

target: T2, Aβ1–42 peptide film (mostly monomeric Aβ1–42) (UniProt P05067 672-713); experiment: ELISA; Aβ1–42 peptide film (mostly monomers) coated on the plate (10 µg/ml, bicarbonate-carbonate buffer pH 9.6); D-compounds from 10 µg/ml, 2 h at 37°C; detected by anti-fluorescein isothiocyanate-AP, pNPP 2.5 h; conditions: both partners purified
T2 construct: amyloid-β peptide Aβ1–42, cut from the amyloid precursor protein (APP), freshly dissolved peptide film containing mostly monomers and smaller oligomers; Same peptide as m14, not fibrillised; also called Aβ1–42 monomers; Aβ peptide film; source: bought: Bachem (lyophilized powder); HFIP film, reconstituted with 0.54% DMSO in PBS
T2 sequence (P05067 672-713): as above

Binder	% binding relative to ACI-80-Kϕ	binding value (ELISA, 10 ug/mL compound)
B1	243%	1.19
B2	167%	0.82
B3	214%	1.05
B4	263%	1.29
B5	129%	0.63
B6	216%	1.06
B7	214%	1.05
B8	122%	0.79
B9	100%	0.49
B10	163%	0.8
B11	176%	0.86
